According to patent publication US20110256062A1 (MEDICAL RESEARCH COUNCIL, published 2011):

target: full-length GFP-LRRK2[G2019S] mutant (human) (UniProt Q5S007); experiment: SILAC mass spectrometry of GFP-binder immunoprecipitates from HEK-293 lysates; range told of the group of isoforms
Sequence (Q5S007 whole entry G2019S, canonical isoform): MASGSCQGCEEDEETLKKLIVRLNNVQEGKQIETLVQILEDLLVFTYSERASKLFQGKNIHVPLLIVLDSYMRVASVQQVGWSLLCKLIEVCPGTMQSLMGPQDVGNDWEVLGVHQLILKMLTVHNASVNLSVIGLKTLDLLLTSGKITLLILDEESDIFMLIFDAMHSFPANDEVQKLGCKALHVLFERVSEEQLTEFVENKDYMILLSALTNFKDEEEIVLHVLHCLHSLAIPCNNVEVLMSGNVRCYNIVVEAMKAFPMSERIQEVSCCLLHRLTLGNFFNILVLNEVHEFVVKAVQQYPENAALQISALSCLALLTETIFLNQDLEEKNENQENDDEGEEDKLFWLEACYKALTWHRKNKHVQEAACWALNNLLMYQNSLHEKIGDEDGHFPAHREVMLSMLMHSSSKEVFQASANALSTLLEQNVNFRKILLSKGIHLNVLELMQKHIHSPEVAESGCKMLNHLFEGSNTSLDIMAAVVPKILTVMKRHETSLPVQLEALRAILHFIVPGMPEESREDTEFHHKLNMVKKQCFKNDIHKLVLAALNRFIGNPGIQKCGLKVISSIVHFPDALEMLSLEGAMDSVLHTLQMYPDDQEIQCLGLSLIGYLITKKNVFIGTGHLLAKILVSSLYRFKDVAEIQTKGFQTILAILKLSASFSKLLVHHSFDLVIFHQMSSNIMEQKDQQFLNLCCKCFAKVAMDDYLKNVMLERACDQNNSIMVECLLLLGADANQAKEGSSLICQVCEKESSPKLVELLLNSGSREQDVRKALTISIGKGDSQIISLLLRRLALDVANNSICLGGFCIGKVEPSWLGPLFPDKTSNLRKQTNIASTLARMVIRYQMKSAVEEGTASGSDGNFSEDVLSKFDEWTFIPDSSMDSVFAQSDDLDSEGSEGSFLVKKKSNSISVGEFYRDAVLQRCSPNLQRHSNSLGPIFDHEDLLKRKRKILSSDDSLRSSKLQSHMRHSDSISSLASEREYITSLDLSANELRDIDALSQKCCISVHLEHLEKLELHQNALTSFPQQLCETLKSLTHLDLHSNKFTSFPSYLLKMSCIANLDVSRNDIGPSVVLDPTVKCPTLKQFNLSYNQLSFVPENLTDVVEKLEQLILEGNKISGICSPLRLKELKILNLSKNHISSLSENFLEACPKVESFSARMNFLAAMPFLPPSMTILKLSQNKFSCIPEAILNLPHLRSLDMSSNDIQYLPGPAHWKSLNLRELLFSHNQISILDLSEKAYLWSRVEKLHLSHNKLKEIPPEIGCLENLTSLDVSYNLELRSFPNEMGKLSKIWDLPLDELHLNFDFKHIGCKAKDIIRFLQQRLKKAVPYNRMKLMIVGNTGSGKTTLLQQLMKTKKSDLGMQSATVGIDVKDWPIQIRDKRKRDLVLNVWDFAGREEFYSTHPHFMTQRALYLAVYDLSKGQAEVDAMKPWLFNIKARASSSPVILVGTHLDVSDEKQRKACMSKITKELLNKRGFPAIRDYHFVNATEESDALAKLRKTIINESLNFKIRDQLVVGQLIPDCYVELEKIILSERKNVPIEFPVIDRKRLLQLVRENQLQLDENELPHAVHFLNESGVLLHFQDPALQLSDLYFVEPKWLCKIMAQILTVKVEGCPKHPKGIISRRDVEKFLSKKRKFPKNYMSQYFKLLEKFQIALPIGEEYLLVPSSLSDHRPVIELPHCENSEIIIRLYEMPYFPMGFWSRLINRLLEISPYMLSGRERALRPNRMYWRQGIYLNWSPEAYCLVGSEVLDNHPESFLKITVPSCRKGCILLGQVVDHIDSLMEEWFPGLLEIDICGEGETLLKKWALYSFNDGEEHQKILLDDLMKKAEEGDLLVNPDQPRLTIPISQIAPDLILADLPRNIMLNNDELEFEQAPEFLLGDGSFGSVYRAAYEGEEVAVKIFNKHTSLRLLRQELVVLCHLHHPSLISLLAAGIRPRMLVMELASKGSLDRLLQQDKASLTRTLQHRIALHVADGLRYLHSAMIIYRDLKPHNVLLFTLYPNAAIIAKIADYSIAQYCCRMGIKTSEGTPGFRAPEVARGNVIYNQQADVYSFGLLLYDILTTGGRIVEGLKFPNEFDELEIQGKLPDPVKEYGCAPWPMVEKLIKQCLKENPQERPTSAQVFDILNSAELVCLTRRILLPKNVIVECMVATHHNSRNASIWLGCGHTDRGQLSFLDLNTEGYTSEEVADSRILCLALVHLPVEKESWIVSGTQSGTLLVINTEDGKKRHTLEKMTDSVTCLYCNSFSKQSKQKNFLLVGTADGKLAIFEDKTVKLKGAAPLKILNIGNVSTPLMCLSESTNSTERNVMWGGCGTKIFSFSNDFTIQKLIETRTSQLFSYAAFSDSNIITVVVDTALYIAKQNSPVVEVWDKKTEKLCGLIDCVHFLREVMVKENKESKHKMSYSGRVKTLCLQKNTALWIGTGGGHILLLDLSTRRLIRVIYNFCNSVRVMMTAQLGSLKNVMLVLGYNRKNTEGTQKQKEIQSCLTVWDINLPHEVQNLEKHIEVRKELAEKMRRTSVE

Row | Molecule | fold enrichment compared to GFP alone [fold]
1 | endogenous 14-3-3 in 293 cells | 10 to 30

target: wild type full-length GFP-LRRK2 (human) (UniProt Q5S007); experiment: as above
Sequence (Q5S007 whole entry): as the sequence (Q5S007 whole entry G2019S, canonical isoform) above, with S2019G counted along it

Row | Molecule | fold enrichment compared to GFP alone [fold]
2 | endogenous 14-3-3 in 293 cells | 10 to 30

target: T1, full length human FLAG-LRRK2 (wild type) (human, UniProt Q5S007 1-2527, phosphoserine at 860, 910, 935, 955, 973 and 976 (mass spectrometry)); experiment: glutathione-Sepharose affinity purification of GST tagged 14-3-3 isoforms from HEK-293 cells expressing FLAG-LRRK2, anti-FLAG immunoblot
T1 construct: mature; also called full length LRRK2
T1 sequence (Q5S007 whole entry, canonical isoform): as the sequence (Q5S007 whole entry G2019S, canonical isoform) above, with S2019G counted along it
Experimental: FIG. 2. […] A.) 5 mg of Swiss 3T3 lysate was subjected to immunoprecipitation with control IgG or anti-LRRK2 (S348C) antibody. Immunoprecipitates were resolved on 4-12% Novex SDS-polyacrylamide gel and immunoblotted with antibodies against LRRK2 (S374C), Hsp90 and pan 14-3-3. B.) 5 mg of Swiss 3T3 lysate was subjected to immunoprecipitation with anti-pan 14-3-3 antibodies and immunoprecipitates were resolved on 4-12% Novex SDS-polyacrylamide gels and immunoblotted with antibodies against pan-14-3-3 and LRRK2 (S374C). […] 36 hours post transfection cells were lysed and glutathione-Sepharose affinity purified proteins immunoblotted with anti-GST or anti-FLAG antibodies. D.) Fragments encoding the indicated domains of LRRK2 were transiently expressed in HEK-293 cells and immunoprecipitated with anti-FLAG antibodies. The immunoprecipitates were resolved on 4-12% Novex SDS-polyacrylamide gels and probed with either anti-FLAG antibodies or 14-3-3 overlay with digoxigenin labeled 14-3-3 in a far western assay. […] E.) Endogenous LRRK2 was immunoprecipitated from Swiss 3T3 cells with anti-LRRK2 (S348C) and subsequently treated with λ-phosphatase in the absence or presence of EDTA prior to immunoblot analysis with indicated antibodies or a 14-3-3 overlay assay. F.) As in E, except experiment undertaken with immunoprecipitated FLAG-LRRK2 obtained following transient transfection in HEK-293 cells.
Immunological procedures. Cell lysates (10-30 μg) were resolved by electrophoresis on SDS polyacrylamide gels or Novex 4-12% gradient gels, and electroblotted to nitrocellulose membranes. Membranes were blocked with 5% skimmed milk (w/v) in 50 mM Tris/HCl, pH 7.5, 0.15 M NaCl and 0.1% (v/v) Tween (TBST Buffer). For phospho-antibodies, primary antibody was used at a concentration of 1 μg/ml, diluted in 5% skimmed milk in TBST with the inclusion of 10 μg/ml dephosphorylated-peptide.

Row | Molecule | binding result
3 | GST tagged human 14-3-3 beta (other, One of all seven isoforms of human 14-3-3 expressed from pEBG plasmids; also called GST-14-3-3 beta; not shown: GST tag from the pEBG plasmid) MTMDKSELVQKAKLAEQAERYDDMAAAMKAVTEQGHELSNEERNLLSVAYKNVVGARRSSWRVISSIEQKTERNEKKQQMGKEYREKIEAELQDICNDVLELLDKYLIPNATQPESKVFYLKMKGDYFRYLSEVASGDNKQTTVSNSQQAYQEAFEISKKEMQPTHPIRLGLALNFSVFYYEILNSPEKACSLAKTAFDEAIAELDTLNEESYKDSTLIMQLLRDNLTLWTSENQGDEGDAGEGEN | binds
4 | GST tagged human 14-3-3 eta (other, As for GST tagged 14-3-3 beta; also called GST-14-3-3 eta; not shown: GST tag from the pEBG plasmid) MGDREQLLQRARLAEQAERYDDMASAMKAVTELNEPLSNEDRNLLSVAYKNVVGARRSSWRVISSIEQKTMADGNEKKLEKVKAYREKIEKELETVCNDVLSLLDKFLIKNCNDFQYESKVFYLKMKGDYYRYLAEVASGEKKNSVVEASEAAYKEAFEISKEQMQPTHPIRLGLALNFSVFYYEIQNAPEQACLLAKQAFDDAIAELDTLNEDSYKDSTLIMQLLRDNLTLWTSDQQDEEAGEGN | binds
5 | GST tagged human 14-3-3 sigma (other, As for GST tagged 14-3-3 beta; also called atypical sigma isoform; not shown: GST tag from the pEBG plasmid) MERASLIQKAKLAEQAERYEDMAAFMKGAVEKGEELSCEERNLLSVAYKNVVGGQRAAWRVLSSIEQKSNEEGSEEKGPEVREYREKVETELQGVCDTVLGLLDSHLIKEAGDAESRVFYLKMKGDYYRYLAEVATGDDKKRIIDSARSAYQEAMDISKKEMPPTNPIRLGLALNFSVFHYEIANSPEEAISLAKTTFDEAMADLHTLSEDSYKDSTLIMQLLRDNLTLWTADNAGEEGGEAPQEPQS | no binding
6 | GST tagged human 14-3-3 gamma (other, As for GST tagged 14-3-3 beta; also called GST-14-3-3 gamma; not shown: GST tag from the pEBG plasmid) MVDREQLVQKARLAEQAERYDDMAAAMKNVTELNEPLSNEERNLLSVAYKNVVGARRSSWRVISSIEQKTSADGNEKKIEMVRAYREKIEKELEAVCQDVLSLLDNYLIKNCSETQYESKVFYLKMKGDYYRYLAEVATGEKRATVVESSEKAYSEAHEISKEHMQPTHPIRLGLALNYSVFYYEIQNAPEQACHLAKTAFDDAIAELDTLNEDSYKDSTLIMQLLRDNLTLWTSDQQDDDGGEGNN | binds
7 | GST tagged human 14-3-3 zeta (other, As for GST tagged 14-3-3 beta; also called GST-14-3-3 zeta; not shown: GST tag from the pEBG plasmid) MDKNELVQKAKLAEQAERYDDMAACMKSVTEQGAELSNEERNLLSVAYKNVVGARRSSWRVVSSIEQKTEGAEKKQQMAREYREKIETELRDICNDVLSLLEKFLIPNASQAESKVFYLKMKGDYYRYLAEVAAGDDKKGIVDQSQQAYQEAFEISKKEMQPTHPIRLGLALNFSVFYYEILNSPEKACSLAKTAFDEAIAELDTLSEESYKDSTLIMQLLRDNLTLWTSDTQGDEAEAGEGGEN | binds
8 | GST tagged human 14-3-3 epsilon (other, As for GST tagged 14-3-3 beta; also called GST-14-3-3 epsilon; not shown: GST tag from the pEBG plasmid) MDDREDLVYQAKLAEQAERYDEMVESMKKVAGMDVELTVEERNLLSVAYKNVIGARRASWRIISSIEQKEENKGGEDKLKMIREYRQMVETELKLICCDILDVLDKHLIPAANTGESKVFYYKMKGDYHRYLAEFATGNDRKEAAENSLVAYKAASDIAMTELPPTHPIRLGLALNFSVFYYEILNSPDRACRLAKAAFDDAIAELDTLSEESYKDSTLIMQLLRDNLTLWTSDMQGDGEEQNKEALQDVEDENQ | binds
9 | GST tagged human 14-3-3 theta (other, As for GST tagged 14-3-3 beta; also called GST-14-3-3 theta; not shown: GST tag from the pEBG plasmid) MEKTELIQKAKLAEQAERYDDMATCMKAVTEQGAELSNEERNLLSVAYKNVVGGRRSAWRVISSIEQKTDTSDKKLQLIKDYREKVESELRSICTTVLELLDKYLIANATNPESKVFYLKMKGDYFRYLAEVACGDDRKQTIDNSQGAYQEAFDISKKEMQPTHPIRLGLALNFSVFYYEILNNPELACTLAKTAFDEAIAELDTLNEDSYKDSTLIMQLLRDNLTLWTSDSAGEECDAAEGAEN | binds
